Fewer inactive variants are shown than the library holds.
B1: TPR 5TU (parent)
chain: GGAUCUUCUCGAUCUAACAAAAAAGACAAAUCUGCCACAAAGCUUGAGAGCAUCUUCGGAUGCAGAGGCGGCAGCCUUCGGUGGCGCGAUAGCGCCAACGUUCUCAACUAUGACACGCAAAACGCGUGCUCCGUUGAAUGGAGUUUAUCAUG

Variants of: B1
Assay: polymerase ribozyme fitness, log enrichment relative to wild type (log ratio); higher = more active; in vitro selection for triplet polymerase activity
Summary of the method: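 One round of in vitro selection, in triplicate, was applied to PCR-built, transcribed mutant libraries of each subunit of a heterodimeric triplet polymerase ribozyme. The steps were annealing with a biotinylated primer, partner subunit and triplets, incubation frozen at −7 °C, gel excision of extended constructs, streptavidin-bead capture and RT-PCR. Fitness is the logarithm, base 2, of genotype enrichment over wild-type enrichment from inverse-variance-weighted replicate averages of Illumina-sequenced inputs and outputs, keeping genotypes with ≥10 input reads and ≥1 read per output.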

| Variant | polymerase ribozyme fitness (log ratio) |
| --- | --- |
| GGAUCUUCUCGAUCUAACAAAAAAGACAAAUCUGCCACAAAGCUUGAGAGCAUCUUCGGAUGCAGAGGCGGCAGCCUUCGGUGGCACGAUAGCGCCAACGUUCUCAACUAUGACACGCAAAGCGCGUGCUCCGUUGAAUGGAGUUUAGCAUG [G86A A122G U148G] | ≤ -4.2 |
| GGAUCUUCUCGAUCUAACAAAAAAGACAAAUCUGCCACAAAGCUUGAGAGCAUCUUCGGAUGCAGAGGCGGCAGCCUUCGGUGGCACGAUAGCGCCAACGUUGUCAACUAUGACACGCAAAAUGCGUGCUCCGUUGAAUGGAGUUUAUCAUG [G86A C103G C123U] | -3.36 |
| GGAUCUUCUCGAUCUAACAAAAAAGACAAAUCUGCCACAAAGCUUGAGAGCAUCUUCGGAUGCAGAGGCGGCAGCCUUCGGUGGCACGAUAGCGCCAACGUUCUCAACUAUGACACGCAAAGCGCGUGCUCCGUUGAAUGGAGUUUAUCAUG [G86A A122G] | -1.11 |
| GGAUCUUCUCGAUCUAACAAAAAAGACAAAUCUGCCACAAAGCUUGAGAGCAUCUUCGGAUGCAGAGGCGGCAGCCUUCGGUGGCACGAUAGCGCCAACGUUCUCAACUAUGACACGCAAAACGCGUGCUCCGUUGAAUGGAGUUUAUCCUG [G86A A150C] | ≤ -4.2 |
| GGAUCUUCUCGAUCUAACAAAAAAGACAAAUCUGCCACAAAGCUUGAGAGCAUCUUCGGAUGCAGAGGCGGCAGCCUUCGGUGGCACGAUAGCGCCAACGUUCUCAACUAUGACACGCAAAACGCGUGCUCCGUUGAAUGGAGUUUAUCGUG [G86A A150G] | -3.09 |
| GGAUCUUCUCGAUCUAACAAAAAAGACAAAUCUGCCACAAAGCUUGAGAGCAUCUUCGGAUGCAGAGGCGGCAGCCUUCGGUGGUGCGAUAGCGCCAACGUUCUCAACUAUGACACGCAAAACGCGUGCUCCGGUGAAUGGAGUUUAUCAUG [C85U U134G] | -2.89 |
| GGAUCUUCUCGAUCUAACAAAAAAGACAAAUCUGCCACAAAGCUUGAGAGCAUCUUCGGAUGCAGAGGCGGCAGCCUUCGGUGGUGCGAUAGCGCCAACGUUCUCAACUAUGACACGCAAAACGCGUGCUCCGAUGAAUGGAGUUUAUCAUG [C85U U134A] | -3.04 |
| GGAUCUUCUCGAUCUAACAAAAAAGACAAAUCUGCCACAAAGCUUGAGAGCAUCUUCGGAUGCAGAGGCGGCAGCCUUCGGUGGCACGAUAGCGCCAACGUUGUCAACUAUGACACGCAAAACGCGUGCUCCGAUGAAUGGAGUUUAUCAUG [G86A C103G U134A] | ≤ -4.2 |
| GGAUCUUCUCGAUCUAACAAAAAAGACAAAUCUGCCACAAAGCUUGAGAGCAUCUUCGGAUGCAGAGGCGGCAGCCUUCGGUGGCACGAUAGCGCCAACGUUCUCAACUGUGACACGCAAAACGCGUGCUCCGUUGAAUGGAGUAUAUGAUG [G86A A110G U145A C149G] | ≤ -4.2 |
| GGAUCUUCUCGAUCUAACAAAAAAGACAAAUCUGCCACAAAGCUUGAGAGCAUCUUCGGAUGCAGAGGCGGCAGCCUUCGGUGGUGCGAUAGCGCCAACGUUCUCAACUAUGACACGCAAAACGCGUGCGCCGUUGAAUGGAGUUUAUCAUG [C85U U130G] | -3.71 |
| GGAUCUUCUCGAUCUAACAAAAAAGACAAAUCUGCCACAAAGCUUGAGAGCAUCUUCGGAUGCAGAGGCGGCAGCCUUCGGUGGUGCGAUAGCGCCAACGUUCUCAACUAUGACACGCAAAACGCGUGCUCCGUUGAACGGAGUUUAUCAUG [C85U U139C] | -3.16 |
| GGAUCUUCUCGAUCUAACAAAAAAGACAAAUCUGCCACAAAGCUUGAGAGCAUCUUCGGAUGCAGAGGCGGCAGCCUUCGGUGGUGCGAUAGCGCCAACGUUCUCAACUAUGACACGCAAAACGCGUGCUCCGUUGAAGGGAGUUUAUCAUG [C85U U139G] | -0.28 |
| GGAUCUUCUCGAUCUAACAAAAAAGACAAAUCUGCCACAAAGCUUGAGAGCAUCUUCGGAUGCAGAGGCGGCAGCCUUCGGUGGUGCGAUAGCGCCAACGUUCUCAACUAUGACACGCAAAACGCGUGCUCCGCUGAAUGGAGAUUAUAAUG [C85U U134C U144A C149A] | -4.1 |
| GGAUCUUCUCGAUCUAACAAAAAAGACAAAUCUGCCACAAAGCUUGAGAGCAUCUUCGGAUGCAGAGGCGGCAGCCUUCGGUGGCACGAUAGCGCCAACGUUCUCAACUUUGACACGCAAAACGCGUGCUCCGUUGAGUGGAGUUUAUCAUG [G86A A110U A138G] | ≤ -4.2 |
| GGAUCUUCUCGAUCUAACAAAAAAGACAAAUCUGCCACAAAGCUUGAGAGCAUCUUCGGAUGCAGAGGCGGCAGCCUUCGGUGGCACGUUAGCGCCAACGUUCUCAACUAUGACACGCAAAACGCGUGCUCCGUUGAAUGGAGUUUAUCAUG [G86A A89U] | -1.96 |
| GGAUCUUCUCGAUCUAACAAAAAAGACAAAUCUGCCACAAAGCUUGAGAGCAUCUUCGGAUGCAGAGGCGGCAGCCUUCGGUGGCACGAUAGCGCCAACGUUCUCAACUUUGACACGCAAAACGCGUGCUCCGUUGAAUGGAGUUUAUCAUG [G86A A110U] | ≤ -4.2 |
| GGAUCUUCUCGAUCUAACAAAAAAGACAAAUCUGCCACAAAGCUUGAGAGCAUCUUCGGAUGCAGAGGCGGCAGCCUUCGGUGGUGCGAUAGCGCCAACGUUCUCAACUAUGACACGCAAAACGCGCGCUCCGUUGAAUGGAGUAUAUCAUG [C85U U127C U145A] | -3.58 |
| GGAUCUUCUCGAUCUAACAAAAAAGACAAAUCUGCCACAAAGCUUGAGAGCAUCUUCGGAUGCAGAGGCGGCAGCCUUCGGUGGCACGAUAGCGCCAAGGUUCUCAACUAUGACACGCAAAACGCGUGCUCCGUUGAAUGGAGUUUAUCAUG [G86A C99G] | -3.06 |
| GGAUCUUCUCGAUCUAACAAAAAAGACAAAUCUGCCACAAAGCUUGAGAGCAUCUUCGGAUGCAGAGGCGGCAGCCUUCGGUGGCACGAUAGCGCCAACGUUCUCAACUAUGACACGCAAAACGCGUGCUCCGUUGAAUGGAGUUUAUCAUG [G86A] | -0.877 |
